# Laboratory results published in US20250025478A1 (published 2025).
# Columns and labels:
# RNF213-TurboID = biological target: T1, RNF213-TurboID (Homo sapiens (Human), UniProt Q63HN8 1-5207); experiment: TurboID proximity biotinylation, streptavidin recovery, MS, SAINT express (FIG. 2B)
# T1 construct: Recombined into HeLa FlpIn-TRex RNF213-KO cells; proximity-labelling bait; also called C-Turbo; 3×-FLAG-RNF213-TurboID; not shown: 3×-FLAG tag; TurboID biotin ligase at the C-terminus
# Description: RNF213-interacting proteins were identified to evaluate how RNF213 regulates hypoxia sensitivity (FIG. 2A). TurboID-RNF213 (“N-Turbo”), RNF213-TurboID (“C-Turbo”), or TurboID alone (Control Turbo) were recombined into HeLa FlpIn-TRex RNF213-KO cells. These cells were labelled with biotin for 10 min., and biotinylated proteins were recovered on streptavidin, digested with trypsin, and analyzed by MS (FIG. 2A). Proteins were ranked as potential binding partners by using the SAINT express algorithm³⁶ Immunoblotting (FIG. 9A) and silver staining (FIG. 9B) confirmed that similar amounts of each sample were submitted for analysis. Relatively few proteins labelled by N-Turbo were labelled to an extent greater than their labeling by Control-Turbo (FIG. 9C). […] Among the other top candidates were the major K63-deubiquitinase and NF-κB regulator CYLD and its interacting protein SPATA2 (FIG. 2B, orange-colored arrows). […] Other top C-Turbo interactors included proteins involved in VEGF signaling, which is induced in hypoxia (FLII, MYOF^{39,40}), inflammation and atherosclerosis (MAP4K4, SPTLC1^{41,42}), lipotoxicity (SPTLC1, ALDH1B1^{43,44}), ischemia response (CPEB4⁴⁵), and stroke (SARS2⁴⁶). Top N-Turbo interactors included CYP51A1, which plays a crucial role in cholesterol metabolism and atherosclerosis⁴⁷.
# Cells were cultured in standard media but with 10% tetracycline (Tet)-free FBS (Clonetech) for at least 1 week. Tet-free/biotin-free FBS was generated by incubating Tet-free FBS with sterile streptavidin beads overnight followed by centrifugation to remove the beads. N-Turbo, C-Turbo, and Turbo proteins were induced by adding 1 μg/ml Dox to cells for 36 hours. For the last ten min. of incubation, 500 μM of biotin was added to the medium.
# TurboID-RNF213 = biological target: T2, TurboID-RNF213 (Homo sapiens (Human), UniProt Q63HN8 1-5207); experiment: TurboID proximity biotinylation, streptavidin recovery, MS, SAINT express (FIG. 9C)
# T2 construct: Recombined into HeLa FlpIn-TRex RNF213-KO cells; proximity-labelling bait; also called N-Turbo; not shown: TurboID biotin ligase at the N-terminus
# Description: RNF213-interacting proteins were identified to evaluate how RNF213 regulates hypoxia sensitivity (FIG. 2A). TurboID-RNF213 (“N-Turbo”), RNF213-TurboID (“C-Turbo”), or TurboID alone (Control Turbo) were recombined into HeLa FlpIn-TRex RNF213-KO cells. These cells were labelled with biotin for 10 min., and biotinylated proteins were recovered on streptavidin, digested with trypsin, and analyzed by MS (FIG. 2A). Proteins were ranked as potential binding partners by using the SAINT express algorithm³⁶ Immunoblotting (FIG. 9A) and silver staining (FIG. 9B) confirmed that similar amounts of each sample were submitted for analysis. Relatively few proteins labelled by N-Turbo were labelled to an extent greater than their labeling by Control-Turbo (FIG. 9C). […] Among the other top candidates were the major K63-deubiquitinase and NF-κB regulator CYLD and its interacting protein SPATA2 (FIG. 2B, orange-colored arrows). […] Other top C-Turbo interactors included proteins involved in VEGF signaling, which is induced in hypoxia (FLII, MYOF^{39,40}), inflammation and atherosclerosis (MAP4K4, SPTLC1^{41,42}), lipotoxicity (SPTLC1, ALDH1B1^{43,44}), ischemia response (CPEB4⁴⁵), and stroke (SARS2⁴⁶). Top N-Turbo interactors included CYP51A1, which plays a crucial role in cholesterol metabolism and atherosclerosis⁴⁷. […]
# 3×-FLAG-RNF213 = biological target: T3, 3×-FLAG-RNF213 (Homo sapiens (Human), UniProt Q63HN8 1-5207, phosphotyrosine at Y1275 (found by MS in cells; phosphorylated by ABL1 in vitro)); experiment: co-immunoprecipitation/immunoblot (FIG. 2D)
# T3 construct: Expressed from pcDNA5-3x-FLAG-RNF213; also called WT-RNF213; wild type RNF213; not shown: 3×-FLAG tag
# T1 sequence (Q63HN8 whole entry N1045D): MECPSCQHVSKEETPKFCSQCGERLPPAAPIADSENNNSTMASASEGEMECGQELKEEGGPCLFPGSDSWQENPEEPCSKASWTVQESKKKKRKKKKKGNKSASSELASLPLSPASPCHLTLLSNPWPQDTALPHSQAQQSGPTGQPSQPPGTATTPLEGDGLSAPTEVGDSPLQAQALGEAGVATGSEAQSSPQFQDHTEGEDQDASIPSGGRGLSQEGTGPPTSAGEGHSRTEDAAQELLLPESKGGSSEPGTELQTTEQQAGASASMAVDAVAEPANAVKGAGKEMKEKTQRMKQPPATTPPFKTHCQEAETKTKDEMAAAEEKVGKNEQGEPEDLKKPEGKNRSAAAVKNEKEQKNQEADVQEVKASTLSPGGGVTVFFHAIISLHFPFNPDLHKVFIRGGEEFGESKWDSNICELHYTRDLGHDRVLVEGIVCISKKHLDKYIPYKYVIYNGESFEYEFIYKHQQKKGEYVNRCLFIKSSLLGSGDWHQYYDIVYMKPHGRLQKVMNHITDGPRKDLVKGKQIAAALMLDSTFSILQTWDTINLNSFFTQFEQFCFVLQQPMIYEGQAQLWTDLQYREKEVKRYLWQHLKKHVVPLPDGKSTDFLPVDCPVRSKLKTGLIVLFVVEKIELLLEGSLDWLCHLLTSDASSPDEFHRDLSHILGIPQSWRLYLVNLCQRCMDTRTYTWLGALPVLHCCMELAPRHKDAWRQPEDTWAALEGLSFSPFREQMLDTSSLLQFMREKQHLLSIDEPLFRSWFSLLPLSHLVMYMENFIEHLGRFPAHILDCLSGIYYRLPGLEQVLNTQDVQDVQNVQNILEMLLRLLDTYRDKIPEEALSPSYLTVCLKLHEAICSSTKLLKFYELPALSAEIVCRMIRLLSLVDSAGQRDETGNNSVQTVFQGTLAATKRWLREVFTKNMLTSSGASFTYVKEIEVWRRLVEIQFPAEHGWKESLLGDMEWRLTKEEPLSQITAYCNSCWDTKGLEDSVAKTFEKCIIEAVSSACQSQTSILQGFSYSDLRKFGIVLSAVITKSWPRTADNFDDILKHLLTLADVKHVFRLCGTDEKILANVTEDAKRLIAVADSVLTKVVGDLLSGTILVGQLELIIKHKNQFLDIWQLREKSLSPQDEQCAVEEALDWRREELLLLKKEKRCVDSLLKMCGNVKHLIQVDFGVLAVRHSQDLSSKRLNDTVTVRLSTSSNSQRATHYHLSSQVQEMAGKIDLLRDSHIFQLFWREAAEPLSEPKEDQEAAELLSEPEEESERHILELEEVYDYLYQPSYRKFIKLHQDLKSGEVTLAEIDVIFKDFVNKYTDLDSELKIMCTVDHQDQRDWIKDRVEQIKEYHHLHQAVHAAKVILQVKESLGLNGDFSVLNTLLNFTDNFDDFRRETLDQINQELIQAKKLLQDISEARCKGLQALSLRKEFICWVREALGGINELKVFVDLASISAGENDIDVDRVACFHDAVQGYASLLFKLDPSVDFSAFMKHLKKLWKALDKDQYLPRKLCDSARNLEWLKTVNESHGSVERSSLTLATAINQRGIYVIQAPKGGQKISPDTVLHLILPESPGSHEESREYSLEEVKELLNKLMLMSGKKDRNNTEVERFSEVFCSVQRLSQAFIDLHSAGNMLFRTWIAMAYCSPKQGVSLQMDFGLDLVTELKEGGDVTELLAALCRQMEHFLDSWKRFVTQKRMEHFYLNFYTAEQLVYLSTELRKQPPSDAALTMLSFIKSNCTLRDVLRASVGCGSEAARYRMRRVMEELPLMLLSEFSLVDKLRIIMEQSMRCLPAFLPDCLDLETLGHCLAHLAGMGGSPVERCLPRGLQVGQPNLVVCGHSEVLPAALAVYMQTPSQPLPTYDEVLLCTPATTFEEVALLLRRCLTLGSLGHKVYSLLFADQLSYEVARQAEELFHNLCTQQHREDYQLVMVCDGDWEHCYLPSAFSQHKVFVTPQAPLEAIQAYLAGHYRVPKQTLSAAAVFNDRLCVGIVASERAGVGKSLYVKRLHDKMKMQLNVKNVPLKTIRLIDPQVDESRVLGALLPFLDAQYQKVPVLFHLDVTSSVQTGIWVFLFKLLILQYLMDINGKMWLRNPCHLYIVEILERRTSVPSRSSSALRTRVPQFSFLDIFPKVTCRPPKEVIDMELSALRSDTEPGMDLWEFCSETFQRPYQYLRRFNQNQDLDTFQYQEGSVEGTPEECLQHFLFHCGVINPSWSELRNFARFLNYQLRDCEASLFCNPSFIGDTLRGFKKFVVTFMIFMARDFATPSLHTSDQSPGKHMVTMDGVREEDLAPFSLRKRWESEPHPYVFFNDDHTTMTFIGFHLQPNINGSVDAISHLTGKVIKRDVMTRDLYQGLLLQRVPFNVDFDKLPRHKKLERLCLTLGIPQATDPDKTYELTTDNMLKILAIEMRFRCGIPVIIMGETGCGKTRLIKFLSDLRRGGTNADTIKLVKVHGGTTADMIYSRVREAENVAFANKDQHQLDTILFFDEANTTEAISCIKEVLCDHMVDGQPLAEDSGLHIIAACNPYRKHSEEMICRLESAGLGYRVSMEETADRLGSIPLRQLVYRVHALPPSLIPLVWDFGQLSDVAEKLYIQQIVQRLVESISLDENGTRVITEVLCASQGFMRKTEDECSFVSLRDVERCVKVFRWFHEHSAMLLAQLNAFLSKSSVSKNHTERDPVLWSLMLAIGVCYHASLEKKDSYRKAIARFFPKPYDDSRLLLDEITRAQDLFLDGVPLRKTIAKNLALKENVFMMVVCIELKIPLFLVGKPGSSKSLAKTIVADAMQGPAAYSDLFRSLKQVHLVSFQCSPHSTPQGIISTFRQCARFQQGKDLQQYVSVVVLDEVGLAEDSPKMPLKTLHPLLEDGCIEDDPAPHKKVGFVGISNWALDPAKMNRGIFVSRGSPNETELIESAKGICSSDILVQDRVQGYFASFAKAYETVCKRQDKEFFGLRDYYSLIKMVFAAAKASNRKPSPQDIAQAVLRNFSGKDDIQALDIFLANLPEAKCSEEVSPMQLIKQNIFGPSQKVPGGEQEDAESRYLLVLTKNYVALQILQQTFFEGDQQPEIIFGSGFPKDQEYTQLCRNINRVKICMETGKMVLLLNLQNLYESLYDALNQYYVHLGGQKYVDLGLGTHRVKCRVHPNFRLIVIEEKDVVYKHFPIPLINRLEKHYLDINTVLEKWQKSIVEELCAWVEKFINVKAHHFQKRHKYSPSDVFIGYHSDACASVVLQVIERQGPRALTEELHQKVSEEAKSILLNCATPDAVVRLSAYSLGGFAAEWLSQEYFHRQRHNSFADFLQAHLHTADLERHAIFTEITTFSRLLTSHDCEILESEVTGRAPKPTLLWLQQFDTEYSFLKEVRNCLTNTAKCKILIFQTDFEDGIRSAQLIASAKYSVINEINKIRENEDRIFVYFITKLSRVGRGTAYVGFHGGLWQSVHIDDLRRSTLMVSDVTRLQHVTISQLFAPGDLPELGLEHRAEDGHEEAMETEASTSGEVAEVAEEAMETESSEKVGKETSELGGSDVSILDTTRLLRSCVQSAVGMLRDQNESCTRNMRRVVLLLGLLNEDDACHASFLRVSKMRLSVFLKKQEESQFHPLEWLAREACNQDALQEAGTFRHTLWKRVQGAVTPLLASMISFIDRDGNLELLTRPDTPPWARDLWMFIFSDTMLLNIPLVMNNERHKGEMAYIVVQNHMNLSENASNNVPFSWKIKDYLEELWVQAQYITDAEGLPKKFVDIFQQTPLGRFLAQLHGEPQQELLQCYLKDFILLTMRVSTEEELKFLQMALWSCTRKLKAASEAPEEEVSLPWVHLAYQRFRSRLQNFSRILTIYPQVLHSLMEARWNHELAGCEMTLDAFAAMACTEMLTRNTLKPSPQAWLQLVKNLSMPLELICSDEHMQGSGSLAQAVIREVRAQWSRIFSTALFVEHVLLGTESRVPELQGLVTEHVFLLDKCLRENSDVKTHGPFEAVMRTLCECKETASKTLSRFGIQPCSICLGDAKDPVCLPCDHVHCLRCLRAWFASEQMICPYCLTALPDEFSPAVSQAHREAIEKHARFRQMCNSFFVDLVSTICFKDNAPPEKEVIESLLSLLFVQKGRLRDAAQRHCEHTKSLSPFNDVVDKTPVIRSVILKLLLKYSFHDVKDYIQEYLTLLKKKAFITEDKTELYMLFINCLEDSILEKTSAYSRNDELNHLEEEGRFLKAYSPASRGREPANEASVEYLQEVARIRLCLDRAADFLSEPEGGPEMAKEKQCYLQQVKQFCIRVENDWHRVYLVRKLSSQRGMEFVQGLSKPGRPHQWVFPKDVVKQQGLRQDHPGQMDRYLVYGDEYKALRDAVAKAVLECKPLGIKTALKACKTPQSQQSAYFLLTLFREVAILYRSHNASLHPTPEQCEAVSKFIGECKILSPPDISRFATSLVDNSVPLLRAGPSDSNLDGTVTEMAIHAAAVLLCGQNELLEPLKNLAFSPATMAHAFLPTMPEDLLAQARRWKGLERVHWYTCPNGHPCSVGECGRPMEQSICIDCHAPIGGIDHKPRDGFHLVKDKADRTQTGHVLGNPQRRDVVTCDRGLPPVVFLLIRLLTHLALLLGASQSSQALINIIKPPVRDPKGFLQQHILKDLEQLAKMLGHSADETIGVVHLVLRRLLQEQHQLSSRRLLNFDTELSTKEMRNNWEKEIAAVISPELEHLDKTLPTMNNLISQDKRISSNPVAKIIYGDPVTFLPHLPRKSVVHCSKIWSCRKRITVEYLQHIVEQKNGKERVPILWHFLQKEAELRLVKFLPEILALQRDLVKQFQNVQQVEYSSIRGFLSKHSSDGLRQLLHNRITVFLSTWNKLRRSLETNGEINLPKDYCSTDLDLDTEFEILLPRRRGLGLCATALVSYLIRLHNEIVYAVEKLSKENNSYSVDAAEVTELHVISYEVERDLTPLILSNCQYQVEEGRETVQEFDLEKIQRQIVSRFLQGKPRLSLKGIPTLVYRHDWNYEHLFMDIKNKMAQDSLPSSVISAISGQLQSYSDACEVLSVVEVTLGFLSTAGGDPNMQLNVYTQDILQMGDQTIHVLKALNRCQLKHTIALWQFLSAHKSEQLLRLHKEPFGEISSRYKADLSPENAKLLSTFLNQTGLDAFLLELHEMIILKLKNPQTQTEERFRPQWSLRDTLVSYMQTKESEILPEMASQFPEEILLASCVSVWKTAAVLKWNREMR
binding result (RNF213-TurboID),binding result (TurboID-RNF213),binding result (3×-FLAG-RNF213),Binder
binds,–,binds,"CYLD (enzyme, Homo sapiens, UniProt Q9NQC7-2 1-953, looked up, Endogenous protein in cell lysates; the isoform is the one matched by MS; also called Ubiquitin carboxyl-terminal hydrolase CYLD) MSSGLWSQEKVTSPYWEERIFYLLLQECSVTDKQTQKLLKVPKGSIGQYIQDRSVGHSRIPSAKGKKNQIGLKILEQPHAVLFVDEKDVVEINEKFTELLLAITNCEERFSLFKNRNRLSKGLQIDVGCPVKVQLRSGEEKFPGVVRFRGPLLAERTVSGIFFGVELLEEGRGQGFTDGVYQGKQLFQCDEDCGVFVALDKLELIEDDDTALESDYAGPGDTMQVELPPLEINSRVSLKVGETIESGTVIFCDVLPGKESLGYFVGVDMDNPIGNWDGRFDGVQLCSFACVESTILLHINDIIPESVTQERRPPKLAFMSRGVGDKGSSSHNKPKATGSTSDPGNRNRSELFYTLNGSSVDSQPQSKSKNTWYIDEVAEDPAKSLTEISTDFDRSSPPLQPPPVNSLTTENRFHSLPFSLTKMPNTNGSIGHSPLSLSAQSVMEELNTAPVQESPPLAMPPGNSHGLEVGSLAEVKENPPFYGVIRWIGQPPGLNEVLAGLELEDECAGCTDGTFRGTRYFTCALKKALFVKLKSCRPDSRFASLQPVSNQIERCNSLAFGGYLSEVVEENTPPKMEKEGLEIMIGKKKGIQGHYNSCYLDSTLFCLFAFSSVLDTVLLRPKEKNDVEYYSETQELLRTEIVNPLRIYGYVCATKIMKLRKILEKVEAASGFTSEEKDPEEFLNILFHHILRVEPLLKIRSAGQKVQDCYFYQIFMEKNEKVGVPTIQQLLEWSFINSNLKFAEAPSCLIIQMPRFGKDFKLFKKIFPSLELNITDLLEDTPRQCRICGGLAMYECRECYDDPDISAGKIKQFCKTCNTQVHLHPKRLNHKYNPVSLPKDLPDWDWRHGCIPCQNMELFAVLCIETSHYVAFVKYGKDDSAWLFFDSMADRDGGQNGFNIPQVTPCPEVGEYLKMSLEDLHSLDSRRIQGCARRLLCDAYMCMYQSPTMSLYK"
binds,–,binds,"SPATA2 (other, human, UniProt Q9UM82 1-520, looked up, Endogenous protein in cell lysates) MGKPSSMDTKFKDDLFRKYVQFHESKVDTTTSRQRPGSDECLRVAASTLLSLHKVDPFYRFRLIQFYEVVESSLRSLSSSSLRALHGAFSMLETVGINLFLYPWKKEFRSIKTYTGPFVYYVKSTLLEEDIRAILSCMGYTPELGTAYKLRELVETLQVKMVSFELFLAKVECEQMLEIHSQVKDKGYSELDIVSERKSSAEDVRGCSDALRRRAEGREHLTASMSRVALQKSASERAAKDYYKPRVTKPSRSVDAYDSYWESRKPPLKASLSLRKEPVATDVGDDLKDEIIRPSPSLLTMASSPHGSPDVLPPASPSNGPALLRGTYFSTQDDVDLYTDSEPRATYRRQDALRPDVWLLRNDAHSLYHKRSPPAKESALSKCQSCGLSCSSSLCQRCDSLLTCPPASKPSAFPSKASTHDSLAHGASLREKYPGQTQGLDRLPHLHSKSKPSTTPTSRCGFCNRPGATNTCTQCSKVSCDACLSAYHYDPCYKKSELHKFMPNNQLNYKSTQLSHLVYR"

# The remaining lines, values behind:
Binder,binding result (RNF213-TurboID),binding result (TurboID-RNF213),binding result (3×-FLAG-RNF213)
"USP15 (enzyme, human, UniProt Q9Y4E8 2-981, looked up, Endogenous protein) AEGGAADLDTQRSDIATLLKTSLRKGDTWYLVDSRWFKQWKKYVGFDSWDKYQMGDQNVYPGPIDNSGLLKDGDAQSLKEHLIDELDYILLPTEGWNKLVSWYTLMEGQEPIARKVVEQGMFVKHCKVEVYLTELKLCENGNMNNVVTRRFSKADTIDTIEKEIRKIFSIPDEKETRLWNKYMSNTFEPLNKPDSTIQDAGLYQGQVLVIEQKNEDGTWPRGPSTPKSPGASNFSTLPKISPSSLSNNYNNMNNRNVKNSNYCLPSYTAYKNYDYSEPGRNNEQPGLCGLSNLGNTCFMNSAIQCLSNTPPLTEYFLNDKYQEELNFDNPLGMRGEIAKSYAELIKQMWSGKFSYVTPRAFKTQVGRFAPQFSGYQQQDCQELLAFLLDGLHEDLNRIRKKPYIQLKDADGRPDKVVAEEAWENHLKRNDSIIVDIFHGLFKSTLVCPECAKISVTFDPFCYLTLPLPMKKERTLEVYLVRMDPLTKPMQYKVVVPKIGNILDLCTALSALSGIPADKMIVTDIYNHRFHRIFAMDENLSSIMERDDIYVFEININRTEDTEHVIIPVCLREKFRHSSYTHHTGSSLFGQPFLMAVPRNNTEDKLYNLLLLRMCRYVKISTETEETEGSLHCCKDQNINGNGPNGIHEEGSPSEMETDEPDDESSQDQELPSENENSQSEDSVGGDNDSENGLCTEDTCKGQLTGHKKRLFTFQFNNLGNTDINYIKDDTRHIRFDDRQLRLDERSFLALDWDPDLKKRYFDENAAEDFEKHESVEYKPPKKPFVKLKDCIELFTTKEKLGAEDPWYCPNCKEHQQATKKLDLWSLPPVLVVHLKRFSYSRYMRDKLDTLVDFPINDLDMSEFLINPNAGPCRYNLIAVSNHYGGMGGGHYTAFAKNKDDGKWYYFDDSSVSTASEDQIVSKAAYVLFYQRQDTFSGTGFFPLDRETKGASAATGIPLESDEDSNDNDNDIENENCMHTN",binds,–,–
"CYP51A1 (enzyme, Homo sapiens, UniProt Q16850-2 1-404, looked up, Endogenous protein found by proximity labelling/MS; also called Lanosterol 14-alpha demethylase) MVGKTFTYLLGSDAAALLFNSKNEDLNAEDVYSRLTTPVFGKGVAYDVPNPVFLEQKKMLKSGLNIAHFKQHVSIIEKETKEYFESWGESGEKNVFEALSELIILTASHCLHGKEIRSQLNEKVAQLYADLDGGFSHAAWLLPGWLPLPSFRRRDRAHREIKDIFYKAIQKRRQSQEKIDDILQTLLDATYKDGRPLTDDEVAGMLIGLLLAGQHTSSTTSAWMGFFLARDKTLQKKCYLEQKTVCGENLPPLTYDQLKDLNLLDRCIKETLRLRPPIMIMMRMARTPQTVAGYTIPPGHQVCVSPTVNQRLKDSWVERLDFNPDRYLQDNPASGEKFAYVPFGAGRHRCIGENFAYVQIKTIWSTMLRLYEFDLIDGYFPTVNYTTMIHTPENPVIRYKRRSK",–,binds,–
"PTP1B (PTPN1) (enzyme, Homo sapiens, UniProt P18031 1-435, looked up, Endogenous protein in cell lysates; also called Tyrosine-protein phosphatase non-receptor type 1) MEMEKEFEQIDKSGSWAAIYQDIRHEASDFPCRVAKLPKNKNRNRYRDVSPFDHSRIKLHQEDNDYINASLIKMEEAQRSYILTQGPLPNTCGHFWEMVWEQKSRGVVMLNRVMEKGSLKCAQYWPQKEEKEMIFEDTNLKLTLISEDIKSYYTVRQLELENLTTQETREILHFHYTTWPDFGVPESPASFLNFLFKVRESGSLSPEHGPVVVHCSAGIGRSGTFCLADTCLLLMDKRKDPSSVDIKKVLLEMRKFRMGLIQTADQLRFSYLAVIEGAKFIMGDSSVQDQWKELSHEDLEPPPEHIPPPPRPPKRILEPHNGKCREFFPNHQWVKEETQEDKDCPIKEEKGSPLNAAPYGIESMSQDTEVRSRVVGGSLRGAQAASPAKGEPSLPEKDEDHALSYWKPFLVNMCVATVLTAGAYLCYRFLFNSNT",binds,–,–
